This test concerns the target HLA-A*02:01 (Homo sapiens, UniProt P04439, D140Y/D185E/D98H/E176V/E277Q/G131W/G231S/I119V/I121R/I166T/I218V/L300P/L318F/N151K/N90K/P208A/P217A/Q86G/Q94H/R138H/R169H/T345S). Nature of the test: MHC binding assay: UV-ligand exchange with beta2m ELISA (exchange yield). Particulars: binding to HLA-A*02:01, β2m ELISA. The method, boiled down: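 Exchange yield reflects how much β2m remains bound, measured by ELISA: streptavidin capture of 100-fold diluted monomers, HRP anti-β2m at 37° C. for 1 h, TMB read at 450 nm. Monomers come from UV cleavage of a conditional HLA-A*02:01 ligand in the presence of the candidate peptide.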
A general note: An ELISA detects its analyte on a solid surface through an enzyme-linked reagent.
For “248 (FLFPNQYVDV; listed as Homo sapiens) [compound 248]”, the “Peptide exchange (MHC class I binding score, peptide exchange yield)” value (shortened to “Peptide exchange”) is recorded as ““+++” (≥50 = +++)”. As to “249 (LLDGFLVNV; listed as Homo sapiens) [compound 249]”, the “Peptide exchange” value is on record as ““+++” (≥50 = +++)”. With “250 (ALSEEGLLVYL; listed as Homo sapiens) [compound 250]”, the “Peptide exchange” value is reported as ““+++” (≥50 = +++)”. Take “251 (ALYTGFSILV; listed as Homo sapiens) [compound 251]”: the “Peptide exchange” value is given as ““++” (≥20% = ++)”. Regarding “252 (LLIGTDVSL; listed as Homo sapiens) [compound 252]”, the “Peptide exchange” value is recorded as ““+++” (≥50 = +++)”. To “253 (GLDAATATV; listed as Homo sapiens) [compound 253]” belongs ““++” (≥20% = ++)”; to “254 (TLLAFIMEL; listed as Homo sapiens) [compound 254]”, ““+++” (≥50 = +++)”; to “255 (VLASYNLTV; listed as Homo sapiens) [compound 255]”, ““+++” (≥50 = +++)”.

Turning to “256 (FLPPEHTIVYI; listed as Homo sapiens) [compound 256]”, the “Peptide exchange” value was ““+++” (≥50 = +++)”. As for “257 (SIFSAFLSV; listed as Homo sapiens) [compound 257]”, the entry is ““+++” (≥50 = +++)”. To “258 (ELAERVPAI; listed as Homo sapiens) [compound 258]” belongs ““++” (≥20% = ++)”; to “261 (YVLEFLEEI; listed as Homo sapiens) [compound 261]”, ““++” (≥20% = ++)”.

Consider “262 (LLWGDLIWL; listed as Homo sapiens) [compound 262]”, for which the “Peptide exchange” value was ““+++” (≥50 = +++)”. To “263 (LLVSNLDFGV; listed as Homo sapiens) [compound 263]” belongs ““+++” (≥50 = +++)”. As for “264 (SLQEQLHSV; listed as Homo sapiens) [compound 264]”, the entry is ““+++” (≥50 = +++)”; as for “265 (LLFGGTKTV; listed as Homo sapiens) [compound 265]”, ““++” (≥20% = ++)”; as for “266 (KITDTLIHL; listed as Homo sapiens) [compound 266]”, ““+++” (≥50 = +++)”. Turning to “267 (ALQDFLLSV; listed as Homo sapiens) [compound 267]”, the “Peptide exchange” value is ““+++” (≥50 = +++)”. For the substance “269 (RVLEVGALQAV; listed as Homo sapiens) [compound 269]”, the “Peptide exchange” value is ““++” (≥20% = ++)”. As for “270 (LLLDEEGTFSL; listed as Homo sapiens) [compound 270]”, the entry is ““++” (≥20% = ++)”; as for “271 (LVYPLELYPA; listed as Homo sapiens) [compound 271]”, ““+++” (≥50 = +++)”; as for “272 (ALGNTVPAV; listed as Homo sapiens) [compound 272]”, ““+++” (≥50 = +++)”. As for “273 (NLFQSVREV; listed as Homo sapiens) [compound 273]”, the entry is ““++” (≥20% = ++)”.

In the case of “274 (SLLFSLFEA; listed as Homo sapiens) [compound 274]”, the “Peptide exchange” value is listed as ““++” (≥20% = ++)”. As for “275 (YLVYILNEL; listed as Homo sapiens) [compound 275]”, the “Peptide exchange” value is reported as ““++” (≥20% = ++)”.
